A short description of this data set: yeast display, Sf9 membrane polyspecificity reagent, FACS + sequencing; frameworks hold sequencing errors. An outline of the steps: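 After 36–48 hours of galactose induction, yeast (Saccharomyces cerevisiae BJ5465) displaying a synthetic nanobody library were stained at 4 °C for 1 hour with 10% biotinylated, detergent-solubilized Sf9 membrane reagent. Streptavidin microbeads enriched the stained cells before FACS sorting into low and high (top ~1%) gates on anti-HA and streptavidin fluorescence. Each clone's polyreactivity label reflects its gate of origin.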
Consider “QVQLVESGGGLVQAGGSLRLSCAASGRILVLNAMGWYIQAPGKERELVADITSGGSTYYADSVKGRFTISRDNEKNTVYLQMISLKPEHTAVYYCAADWNTYPDYLQSYFVSYEYNYWGQGTLVTVSS”, for which the “polyreactivity (PSR sort gate)” value is “low polyreactivity”.

For the sequence “QVQLVESGGGLVQAGGSLRLSCAASGSIFRQYAMGWYRQAPGKERELVAAINYSGGNTYYADSVKGRFTISRDNAKNTVYLQMNSLKPEDTAVYYCAADSVRHFWWAYYYWGQGTQVTVSS”, the “polyreactivity (PSR sort gate)” value is “low polyreactivity”.

For the sequence “QVQLVESGGGLVQAGGSLRLSCAASGFIFYYYAMGWYRQAPGKERELVAAISWSGGSTYYADSVKGRFTISRDNAKNTVYLQMNSLKPEDTAVYDCAVSRDSYGGKGSFLYDYWGQGTQVTVSS”, the “polyreactivity (PSR sort gate)” value was “low polyreactivity”.

Turning to “QVQLVESGGALVQAGGSLRLSCAASAGNFTGYAMGWSRQAPGKERELVATITSGGSTNYADSVKGRFTISRDNAKNSFYFQLNSLKPEDTAVYYCALDYIGDTPIWQYDYWGQGTQVTVSS”, the “polyreactivity (PSR sort gate)” value is “low polyreactivity”.

As to “QVQLVESGGGLVQAGGSLRLSCAASGSIFGDNAMGRYRQAPGKERELVAVISSSGSTYYADSVKGRFTISRDTAMNTVYLQMNSLKAEDTAVYYCNAYEFDWYEEYYYWGQGTQVTVSS”, the “polyreactivity (PSR sort gate)” value is reported as “low polyreactivity”.

On to “QVQLVESGGGLVQAGGSLRLSCAASGFTFRSYTMGWYRQAPGKERELVARITRSCGNTYYADSVKGRFTISRDNAKNTVYVQMNSLKPEDTEGYYCASVYWGKYSAGNLLEYDYWGQGTQVTVSS”, for which the “polyreactivity (PSR sort gate)” value is “high polyreactivity”.

For “QVQRVESGGGLVQAGGSLRLSCAASGRIFRYNAMGWYRQAPGKERELVAAISGTADRTYYADSVKGRFTNSRDNAKNTVYLQMNSLKPEDTAVYYCAVAYSYRYYYWGQGTQVTVSS”, the “polyreactivity (PSR sort gate)” value is on record as “high polyreactivity”.

With “QVQLVESGGGLVQAGGSLRLSCAASGRTLSYYAMGWYSQAPGKERELVAAITWNGGRTYYADSVKGRFTISRDNAKNTVYLQMNSRKPEDTAVYYCNAVYSPRYYVGGYDYWGQGTQVTVSS”, the “polyreactivity (PSR sort gate)” value is listed as “high polyreactivity”.

As to “QVQLQESGGGLVQAGGSLRLSCAASGNIYDADIMGWYRQAPGKERELVTSITDGGSTNYADSVKGRFTISRDNAKNTVYLQMNSLKPEDTAVYYCAAIAYPDIPTSFDYNTDYSYWGQGTQVTVSS”, the “polyreactivity (PSR sort gate)” value is listed as “low polyreactivity”.

In the case of “QVQLVESGGGLVQAGGSLRLSCAASGRTFYNYAMGWYRQAPGKERELVAAIRGSGGSTYYADSVKGRFTISRDNAKNTVYLQMNSLKPEETAVYYCNAVSQSSEYDYWGHGTQVTVSS”, the “polyreactivity (PSR sort gate)” value is reported as “high polyreactivity”.

As for “QVQLVESGGGLVQAGGRLRLSCAASGFIHYAMGWYRQAPGNERELVAAIRHSGGSTYYADSVKGRFTISRDNANNTVYIHMNSLKPEDTAVYYCAASRSGVGYRMQYWGQGTQVTVSS”, the “polyreactivity (PSR sort gate)” value is “low polyreactivity”.

Regarding “QVQLVESGGGIVQAGGSLRLSCAASGSTFNYNAMGWYRQAPGKERELVAAITRSGDSTYADSVKGRFTISRDNAKNTFYLQMNSLKPEYTAVYYCAKRYTHYSFRRFDYWGQGSQVTVSS”, the “polyreactivity (PSR sort gate)” value is “low polyreactivity”.

With “QVQLVESGGGLVQAGGSLRLSCAASGSTFDRYAMGGYIQAPGKERELVAAISWSGGSTYYADSVKGRFTISRDNAKNTVYFQMNSLKPEDTAVYYCASPYYYLHNQRYWGYDYWGQGTQVTVSS”, the “polyreactivity (PSR sort gate)” value was “high polyreactivity”.

Take “QVQLVESGGGLVQAGGSLRLRCAASGSIFNSYAMGWYRQAPGKERELVPAISRRGGSTYYADSVKGRFTISRDNAKNTVYLQMHSLKPEDTAVYYCNATRPRLTYLGVGYGYDYWGQGTQVTVSS”: the “polyreactivity (PSR sort gate)” value was “high polyreactivity”.

Consider “QVQLVESGGGLVQAGGSLRLSCAASGFTFTRYAMGWYRQAPGKERELVAAISWNSGSTYYADSVKGRFTISRDNAKNTVYLQMNSLKPEDTAVYYCAAAFLRVYYGYTGAFDYWGQGTQVTVSS”, for which the “polyreactivity (PSR sort gate)” value is on record as “high polyreactivity”.

For “QVQLVESGGGLVQAGGSLRLSCAASGRTFPCYAMGWYRQAPGKEREFVAAITASGDSTYYADSVKGRFTISRDNAKNTVYLQMNSLKPEDTAVYYCAADLPVWYVTRYDYWGQGTQVTVSS”, the “polyreactivity (PSR sort gate)” value is “low polyreactivity”.

Turning to “QVQLVESGGGLVQAGGSLRLSGAASGSIFRDNGMGWYRPAPGKERELVAAINSGDSTYYADSVKGRFTISRDNAKNTVYLQLNSLKPEDTAVYYCNADDRRALSQRQYDWYDYWGQGTQVTVSS”, the “polyreactivity (PSR sort gate)” value is “low polyreactivity”.

Regarding “QVQLVESGGGLVQAGGSLRLSCAASGRTFLSYMGWYRQAPGKERELVAISRSGTSTYYADSVKGRFTISRDNAKNTVYLQMNSLKPEDTAVYYCAAETNTWYLFDYWGQGTQVTVSS”, the “polyreactivity (PSR sort gate)” value was “high polyreactivity”.

For the sequence “QVQHVESGGGLVQAGGSLRLSCAASGLTLYGYTMGWYRQAPGKERELVPTITTGGDSTYYADSVKGRFTISRDNAKNTVYLQMTSLKPEDTAVYYCSAFSYGWDYSYDYWGQGTQVTVSS”, the “polyreactivity (PSR sort gate)” value is “low polyreactivity”.

In the case of “QVQLVESGGGLVQAGGSLRLICAASGSIFNYYAMGWYRQAPGKERELVAGITTSGGSTYYADSVKGRFTISRDNAKNTVHLQMNSLKPEDTAVYYCAAYDYISSTYFLDDYWGQGTQVTVSS”, the “polyreactivity (PSR sort gate)” value is given as “low polyreactivity”.

Turning to “QVQLVESGGGLVQAGGSLRLSCAASGRTFYYYVMGWYIQAPGKERELVAAITLRGGSTYYADSVKGRFTISRDNAKNTVYLQMNSLKPEDTAVYYCNARGGSSTYGNYYWGQGTQVTVSS”, the “polyreactivity (PSR sort gate)” value was “low polyreactivity”.

Consider “QVHLVDSGGGLVQAGGSLRLSCAASGSTIKTYTKGWYRQAPGKERELVAGITSGVSTSYADSVKGRFTISRDNAKNTVYLQMNSLKPEDTAVYYCNADAYLVIYFYTVRDYGYDYWGQGTQVTVSS”, for which the “polyreactivity (PSR sort gate)” value was “low polyreactivity”.

As for “QVQLVESGGGIVQAGRSLRLTCAASGITFKAYTMGWYRQAPGKERELVATISRGGRTYADSVKGRFTISRDNAKNTVYLQINSLKPEDTAVYYCAADKYWAQNDYWGQGTQVTVSS”, the “polyreactivity (PSR sort gate)” value is listed as “low polyreactivity”.

Consider “QVKLVESGGGLVQAGGSLRLSCAASGFTFEYYAMGWYRQAPGKERELVAAIRSDSGTNYADSVKGRFTISRDNAKNTVYLQMNSLKPEDTAVYYCAAPTVVLIDYDYWGQGTQVTVSS”, for which the “polyreactivity (PSR sort gate)” value is given as “low polyreactivity”.

As to “QVQLVESGGGLVQAGGSLRLICAASGSIFNQNSMGWYRQAPGKERELVAVISSGGRTSYADSVKGRFTISRDNAKNTVFLLMNSLKPEDTAVYYCNREGWHYGPYGYWGQGTQVTVSS”, the “polyreactivity (PSR sort gate)” value is recorded as “low polyreactivity”.

For the sequence “QDQLVESGGGLVHAGGSLRLSCVPPDSSSLSMLWDGIDRRLGKKGSWLPELTSRGVGTYYADSVKGRFTISRDNAKNPVYLQMNSLKPEDTAVYYCNARYEVFYRYDYWGQGTQVTVSS”, the “polyreactivity (PSR sort gate)” value is on record as “low polyreactivity”.

As for “QVQLVESGGGLVQAGGSLRLSCAASGSTFHDYAMGWYRQAPGKEREFVAAISVRGGSTYYADSVKGRFTISRDNAKNTVYLQMNSLKPEDTAVYYCNKLSSDSYNYWGQGTQVTVSS”, the “polyreactivity (PSR sort gate)” value is “high polyreactivity”.

On to “QVQLVESGGGLVQAGGSLRLSCAASGITFIRYAMGWYRQAPGKERELVAVITRSGGRTYYADSVKGRFTISRDNAKNTVYLQMNSLKPEDTAVYYCAARAYGYDEYEYWGQGTQVTVSS”, for which the “polyreactivity (PSR sort gate)” value is on record as “high polyreactivity”.

On to “QVQLVESGGGLVQAGGSLRLSCAASGRIFPRYAMGWYRQAPGKERQLVAAITSGDSTHYADSVKGRFTISRDNAKNTVYLQMNSLKPEDTAVYYCAAKYPRYGRHAYGYWGQGTQVTVSS”, for which the “polyreactivity (PSR sort gate)” value is “high polyreactivity”.

Take “QVQLVESGGGLVQAGGSLRLSCAASGRIFRGNAMGWYRQAPGKERELVAAISNSGGRTYYADSVKGRFTISRDNAKNTVYVQMTSLKPEDTAVYYCNAVTYSRRYAYYYWGQGTQVTVSS”: the “polyreactivity (PSR sort gate)” value is on record as “high polyreactivity”.

On to “QVQLVESGGGLVQAGGSLRLSCAASGRILPSNAMGWYRQAPGKERELVAGITSGGSTDYADSVKGRFTISRDNAKNTVYLQMNSLKPEDTAVYYCAAHPAYRDSWGEYDYWGQGTQVTVSS”, for which the “polyreactivity (PSR sort gate)” value was “low polyreactivity”.

With “QVQLVESGGGLVQAGGSLRLSCAASGSTFGPYALGWYRQAPGKERELVAAIDKSGGSTYYADSVKGRFTISRDNAKNTVYLQMNSLKPEDTAVYYCAADMLRYFGYYDYDSWGQGTQVTVSS”, the “polyreactivity (PSR sort gate)” value was “low polyreactivity”.

Consider “QVQLVESGGGLVQAGGSLRLSCAASGSTFQINAMGWYRQAPGKERELVAAIDGGGDTYYADSVKGRFTISRDNAKNTVYLQMNTLKPEDTAVYYCAAERRIYYQDFNYWGQGTQVTVSS”, for which the “polyreactivity (PSR sort gate)” value was “low polyreactivity”.

Consider “QVQLVESGGGLVQAGGSLRLSCAASGSTLQRYAMGWYRQAPGKERELVAAISSGGRTYYADSVKGRFTISRDNAKNTVYLQMNRLKPEDTAVYYCAAVLPARSEPVRYYYWGQGTQVTVSS”, for which the “polyreactivity (PSR sort gate)” value was “high polyreactivity”.

As to “QVQLVESGGGLVQAGGSLRLSCAACGSTFGSYAMGWYRQAPGKERELVADITSGGSTYYADSVKGRFTISRDNAKNTVYLQMNSLKPEDTAVYYCAVEGWWDDYKSGAGEFNYWGQGTQVTVSS”, the “polyreactivity (PSR sort gate)” value is “low polyreactivity”.

On to “QVQLVESGGGLVHAGGSLRLSCAASGSTEYNAMGWYRQSPGTQRELVAVITDSDGSTYYADSVKGRYTISRDNAKHTVYLQMNSLKREDTAVYYCAADDYAYSYGYWLTYDYWGQGPQVTVSS”, for which the “polyreactivity (PSR sort gate)” value is “low polyreactivity”.

Consider “QVQLVETGGGLVQAGGSLRLSCADSGRIFRYNAMGWYRHAHGKERELVAAITLSTGSTYYADSVKGRFTISRDNAKNTVYLQMNSLKPEDTAVYYCAARIDGRTYARRVYYWGQGTQVTLSS”, for which the “polyreactivity (PSR sort gate)” value was “high polyreactivity”.

As for “QVQLVESGGGLVQAGGSLRLSCAASGFTFHSYAMGWYRQAPGKERELVAAISYSGGSTYYADSVKGRFTISRDNAKNTVYLQMHSLKPEDTAVYYCAGLRYIYGYANDYWGQGTQVTVSS”, the “polyreactivity (PSR sort gate)” value is “low polyreactivity”.

Turning to “QVQLVESGGGLVQAGGSLRLSCAASGSIFRVYAMGWYRQAPGKERELVAAIRSGGGTNYADSVKGRFTISRDNAKITVYLQMNSLKPEDTAVYYCAREAATDISPGYDYWGQGTQVTVSS”, the “polyreactivity (PSR sort gate)” value is given as “low polyreactivity”.

As to “QVQLVESGGGLVQAGGSLRLSCAASGRTFRSNVMRWYRQAPGKERELVASITWSGGTTYYADSVKGRFTISRDNAKNTVYLQMNSLKPEDTAVYYCNAADERSQGWVGYDHWGQCTQVTVSS”, the “polyreactivity (PSR sort gate)” value is “low polyreactivity”.

Values taken from the nanobody polyreactivity screen of Harvey et al. (2022).
